{"source": "paper PMC5129185", "target": "TTP TZF (RBD) (Homo sapiens, UniProt P26651 102-170)", "sequence (P26651 102-170)": "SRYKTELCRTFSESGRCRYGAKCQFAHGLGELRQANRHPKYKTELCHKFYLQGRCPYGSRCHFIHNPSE", "test": "NMR"}
{"binder": "UUUUAUUUAUUUU (ssRNA)", "note": "[ARE13 (NMR)]", "values": [{"measurement": "binding result", "result": "binds"}]}
